Test results: the FLAb antibody collection (doi:10.1101/2023.12.08.570889)
Positions count from the first letter of the chain named.

B1: unnamed (protein)
chain 1: QVQLVQSGAEVKKPGASVKVSCKASGYTFTSSYINWVRQAPGQGLEWMGTINPVSGSTSYAQKFQGRVTMTRDTSISTAYMELSRLRSDDTAVYYCARSWGYFDVWGQGTLVTVSS
chain 2: QSALTQPASVSGSPGQSITISCTGTSSDVGSYNYVNWYQQHPGKAPKLMIYGVSKRPSGVSNRFSGSKSGNTASLTISGLQAEDEADYYCGTFAGGSYYGVFGGGTKLTVL
B2: unnamed (protein)
chain 1: QVQLVQSGAEVKKPGASVKVSCKASGYTFTSSYINWVRQAPGQGLEWMGTINPVSGSTSYAQKFQGRVTMTRDTSISTAYMELSRLRSDDTAVYYCARGGYTDYWGQGTLVTVSS
chain 2: B1 chain 2
B3: unnamed (protein)
chain 1: B2 chain 1 with T28R, Y33G, S55T, S57N, T102F
chain 2: B1 chain 2
B4: unnamed (protein)
chain 1: B2 chain 1 with T102F, Y104V
chain 2: B1 chain 2
B5: unnamed (protein)
chain 1: B2 chain 1 with S32T, Y33G, S55T, S57G, T102F
chain 2: B1 chain 2
B6: unnamed (protein)
chain 1: B2 chain 1 with T102N
chain 2: B1 chain 2
B7: unnamed (protein)
chain 1: B1 chain 1 with S99L, W100A, G101I, Y102G, F103D, D104S, V105Y
chain 2: B1 chain 2
B8: unnamed (protein)
chain 1: B2 chain 1 with Y101E, T102F
chain 2: B1 chain 2
B9: unnamed (protein)
chain 1: B2 chain 1 with G99N, T102A
chain 2: B1 chain 2
B10: unnamed (protein)
chain 1: B2 chain 1 with T102D
chain 2: B1 chain 2
B11: unnamed (protein)
chain 1: B2 chain 1 with T102V
chain 2: B1 chain 2
B12: unnamed (protein)
chain 1: B2 chain 1 with G99S, T102A
chain 2: B1 chain 2
B13: unnamed (protein)
chain 1: B2 chain 1 with G99S, T102M
chain 2: B1 chain 2
B14: unnamed (protein)
chain 1: B2 chain 1 with G99Q, G100L, Y101T, T102L, Y104V
chain 2: B1 chain 2
B15: unnamed (protein)
chain 1: B2 chain 1 with Y101D, T102M
chain 2: B1 chain 2
B16: unnamed (protein)
chain 1: B2 chain 1 with T102A
chain 2: B1 chain 2
B17: unnamed (protein)
chain 1: B2 chain 1 with Y33H, S55T, S57N, T102F
chain 2: B1 chain 2
B18: unnamed (protein)
chain 1: B2 chain 1 with G99S, T102F
chain 2: B1 chain 2
B19: unnamed (protein)
chain 1: B2 chain 1 with Y101D, T102F
chain 2: B1 chain 2

The binders below were run against ACVR2B, Q13705 (assay: Kd (SPR)).
Chain of ACVR2B, Q13705 (Q13705 whole entry, looked up): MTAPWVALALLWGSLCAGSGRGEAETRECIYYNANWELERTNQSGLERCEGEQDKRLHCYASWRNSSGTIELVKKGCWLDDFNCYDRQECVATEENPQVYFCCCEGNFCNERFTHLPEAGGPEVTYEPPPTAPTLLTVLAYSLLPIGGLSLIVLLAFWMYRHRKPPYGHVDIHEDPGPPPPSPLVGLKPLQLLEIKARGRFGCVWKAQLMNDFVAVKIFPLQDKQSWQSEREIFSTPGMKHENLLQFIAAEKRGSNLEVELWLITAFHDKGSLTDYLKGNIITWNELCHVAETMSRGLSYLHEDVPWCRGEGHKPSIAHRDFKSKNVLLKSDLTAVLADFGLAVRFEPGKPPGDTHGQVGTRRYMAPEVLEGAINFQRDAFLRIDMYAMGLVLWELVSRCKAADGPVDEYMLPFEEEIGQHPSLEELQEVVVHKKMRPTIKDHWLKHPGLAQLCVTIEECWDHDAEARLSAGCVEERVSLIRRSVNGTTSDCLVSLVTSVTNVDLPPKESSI
B1 was tested, and the Kd was 106 nM.
B2 gave a Kd of 101 nM.
For B3, the Kd was 292 nM.
B4 showed a Kd of 26.2 nM.
For B5, the Kd was 234 nM.
For B6, the Kd was 101 nM.
B7 was tested, and the Kd was 111 nM.
B8 was tested, and the Kd was 704 nM.
In the case of B9, the Kd is reported as 337 nM.
In the case of B10, the Kd is reported as 42.6 nM.
Work on B11 yielded a Kd of 153 nM.
For B12, the Kd was 41.9 nM.
Work on B13 yielded a Kd of 6.37 nM.
B14 gave a Kd of 210 nM.
B15 was tested, and the Kd was 162 nM.
For B16, the Kd was 76.7 nM.
B17 gave a Kd of 162 nM.
B18 gave a Kd of 9.19 nM.
With B19 the Kd was 123 nM.
